Test results: the supplement of paper PMC7125110
± gives the standard error. Fewer inactive variants are shown than the library holds.

B1: glmS ribozyme (parent)
chain: AUAAAAGCGCCAGAACUACAGAAAUGUAGUUGACGAGGAGGAGGUUUAUCGAAUUUUCGGCGGAUGCCUCCAAA

Columns and labels:
Conditions in all cases: with glucosamine-6-phosphate
glucosamine-6-phosphate [1] = variants of: B1; assay: self-cleavage kobs at 40 uM GlcN6P; higher = faster cleavage; RNA array
How it was run: (§1)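 A hybridised Cy3 probe tracked barcoded ribozyme variants, transcribed in situ by E. coli RNA polymerase on sequenced MiSeq chips, at 37 °C. The variants received 40 μM to 10 mM glucosamine-6-phosphate in HEPES/KCl/Mg(OAc)2 buffer. kobs came from decay fits and kcat and KM from weighted Michaelis–Menten fits.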

glucosamine-6-phosphate [2] = variants of: B1; assay: self-cleavage kobs at 160 uM GlcN6P; higher = faster cleavage; RNA array
How it was run: as §1

glucosamine-6-phosphate [3] = variants of: B1; assay: self-cleavage kobs at 640 uM GlcN6P; higher = faster cleavage; RNA array
How it was run: as §1

glucosamine-6-phosphate [4] = variants of: B1; assay: self-cleavage kobs at 2500 uM GlcN6P; higher = faster cleavage; RNA array
How it was run: as §1

glucosamine-6-phosphate [5] = variants of: B1; assay: self-cleavage kobs at 10000 uM GlcN6P; higher = faster cleavage; RNA array
How it was run: as §1

Row | Variant | self-cleavage kobs at 40 uM GlcN6P (glucosamine-6-phosphate [1]) [s⁻¹] | self-cleavage kobs at 160 uM GlcN6P (glucosamine-6-phosphate [2]) [s⁻¹] | self-cleavage kobs at 640 uM GlcN6P (glucosamine-6-phosphate [3]) [s⁻¹] | self-cleavage kobs at 2500 uM GlcN6P (glucosamine-6-phosphate [4]) [s⁻¹] | self-cleavage kobs at 10000 uM GlcN6P (glucosamine-6-phosphate [5]) [s⁻¹]
1 | A14G U69A | 0.000118 ± 2.8e-05 | 0.000124 ± 2.5e-05 | 0.000315 ± 9.3e-05 | 0.000142 ± 2.2e-05 | 0.000397 ± 9.9e-05
2 | C61G C70U | < 1e-05 |  |  |  | < 1e-05
3 | C10U A33C U47G G51U C58G A64U C70A | 7.66e-05 ± 2.4e-05 |  |  |  | 0.000101 ± 2.1e-05
4 | U55C G60U C68U | < 1e-05 |  |  | < 1e-05 | 
5 | C10U U45G G51U A64U | < 1e-05 |  |  |  | < 1e-05
6 | C34G G62A | < 1e-05 |  | < 1e-05 | < 1e-05 | < 1e-05
7 | A6U U57G | < 1e-05 |  |  |  | 
8 | G7A C11U U30A | < 1e-05 |  |  |  | 
9 | U31C A36G A39G U47C | < 1e-05 |  |  |  | < 1e-05
10 | U30A A39U G63U | < 1e-05 |  | < 1e-05 | < 1e-05 | 
11 | C10G G44U C68U C70U | < 1e-05 |  |  |  | < 1e-05
12 | A6C A15U A36C G43A U46G C50U A53U C61U | < 1e-05 |  | < 1e-05 | < 1e-05 | < 1e-05
13 | C8G C11G | < 1e-05 | < 1e-05 |  |  | < 1e-05
14 | A6G G9A G38A G41A U57A | < 1e-05 | < 1e-05 | < 1e-05 | < 1e-05 | 
15 | A14G G40U C50G | < 1e-05 |  |  |  | 
16 | A6C G40U | < 1e-05 | < 1e-05 | < 1e-05 |  | 
17 | A15G C71A | 0.000251 ± 5.9e-05 | 0.00102 ± 0.00025 | 0.00108 ± 0.00025 | 0.006 ± 0.0015 | 0.005 ± 0.0016
18 | U46G U54C C67U | 9.53e-05 ± 1.8e-05 |  |  |  | 0.00207 ± 0.00047
19 | G13C A48G G66U C71G | < 1e-05 |  |  |  | < 1e-05
20 | U49C U57C | < 1e-05 | < 1e-05 | < 1e-05 |  | < 1e-05
21 | A6C G29C A36U C61U | < 1e-05 |  |  | < 1e-05 | < 1e-05
22 | C8U G38U G59U C67U | < 1e-05 |  |  |  | 
23 | C10U A52C U57G | < 1e-05 |  | < 1e-05 | < 1e-05 | < 1e-05
24 | G9A A15G U30C | < 1e-05 |  |  |  | 

Row | Variant | self-cleavage kobs at 40 uM GlcN6P (glucosamine-6-phosphate [1]) [s⁻¹] | self-cleavage kobs at 160 uM GlcN6P (glucosamine-6-phosphate [2]) [s⁻¹] | self-cleavage kobs at 640 uM GlcN6P (glucosamine-6-phosphate [3]) [s⁻¹] | self-cleavage kobs at 2500 uM GlcN6P (glucosamine-6-phosphate [4]) [s⁻¹] | self-cleavage kobs at 10000 uM GlcN6P (glucosamine-6-phosphate [5]) [s⁻¹]
25 | C8U G62U U69G | 0.00021 ± 7.2e-05 |  |  |  | 0.000358 ± 0.00015
26 | C8U A39U U45G C70G | < 1e-05 |  |  |  | < 1e-05
27 | G13U G29U A36U U57G | < 1e-05 |  |  |  | < 1e-05
28 | G9U A64C | < 1e-05 | < 1e-05 | < 1e-05 |  | < 1e-05
29 | G37A U57G | < 1e-05 |  |  |  | 
30 | G9A U31G A39G A48C G60C | < 1e-05 |  |  |  | 
31 | G35C A48C | < 1e-05 | < 1e-05 | < 1e-05 | < 1e-05 | < 1e-05
32 | C10A G66U | < 1e-05 | < 1e-05 |  |  | 
33 | G7C A14U | < 1e-05 | < 1e-05 | < 1e-05 | < 1e-05 | 
34 | A12C A42G C70A | < 1e-05 |  |  |  | 2.91e-05 ± 1.2e-05
35 | A36C U45G U65C | < 1e-05 |  |  | < 1e-05 | 
36 | G43A U69G | < 1e-05 |  | < 1e-05 |  | < 1e-05
37 | A6G G41U C50G | < 1e-05 |  |  | < 1e-05 | < 1e-05
38 | G9A C58G U65C | < 1e-05 |  | < 1e-05 | < 1e-05 | 
39 | U31A U46A C61U C70U | < 1e-05 |  |  |  | 
40 | C10A C11G | < 1e-05 | < 1e-05 | < 1e-05 |  | 
41 | G29U G63U | < 1e-05 | < 1e-05 | < 1e-05 |  | < 1e-05
42 | A6G G40C | < 1e-05 |  | < 1e-05 |  | 
43 | G29A C34A | < 1e-05 | < 1e-05 | < 1e-05 | < 1e-05 | < 1e-05
44 | C16U U49C | < 1e-05 | < 1e-05 | < 1e-05 | < 1e-05 | 
45 | G13U A36G | < 1e-05 | < 1e-05 | < 1e-05 | < 1e-05 | < 1e-05
46 | U47A U56C C70G | < 1e-05 |  |  |  | 
47 | C10A U45G A53G | < 1e-05 |  |  |  | 
48 | U30A U31A | 0.000419 ± 7.6e-05 | 0.00152 ± 0.00033 | 0.00269 ± 0.00057 | 0.0075 ± 0.0013 | 0.0264 ± 0.0056
